# B1: Vacuolar protein sorting-associated protein VTA1 (Saccharomyces cerevisiae), Q06263 (parent)
# chain: MASNAARVVATAKDFDKVGLGIIGYYLQLYAVELILSEEDRSQEMTALATELLDTIEAFKKEIGGESEAEDSDKSLHVMNTLIHDQEKAKIYMLNFTMSLYNEKLKQLKDGPWDVMLKRSLWCCIDLFSCILHLWKENISETSTNSLQKRIKYCKIYLSKLAKGEIGSSDEKTLDYADFADDSEEIKDEDVDHQTSDLENNNNDKVEGLAPKDQTTSYEPVDEVPEFIDDADSVNEEEQTVDKNEDAITKDEQQVVKKEVDLTRPSAPSEPAAAEHKSYTKDELTKIMDRASKIEQIQKLAKYAISALNYEDLPTAKDELTKALDLLNSI
# partner: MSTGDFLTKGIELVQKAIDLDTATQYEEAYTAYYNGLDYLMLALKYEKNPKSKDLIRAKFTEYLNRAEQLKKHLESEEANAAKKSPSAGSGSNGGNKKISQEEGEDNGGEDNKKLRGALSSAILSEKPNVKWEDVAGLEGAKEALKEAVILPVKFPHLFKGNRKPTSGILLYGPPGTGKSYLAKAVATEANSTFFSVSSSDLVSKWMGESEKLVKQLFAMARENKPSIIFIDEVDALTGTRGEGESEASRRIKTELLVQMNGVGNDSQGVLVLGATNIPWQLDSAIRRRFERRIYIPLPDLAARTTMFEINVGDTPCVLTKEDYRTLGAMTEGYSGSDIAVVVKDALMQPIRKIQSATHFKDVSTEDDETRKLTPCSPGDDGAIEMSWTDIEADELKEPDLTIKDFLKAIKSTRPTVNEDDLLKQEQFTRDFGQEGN
# B2: Vacuolar protein sorting-associated protein 4 (Saccharomyces cerevisiae), P52917 (parent)
# chain: B1 partner
# partner: B1 chain
# Variants of: B1
# Settings: with vps4_yeast VPS4, P52917
row,Variant,effect of a mutation on the interaction
1,MASNAARVVATAKDFDKVGLGIIGYYLQLYAVELILSEEDRSQEMTALATELLDTIEAFKKEIGGESEAEDSDKSLHVMNTLIHDQEKAKIYMLNFTMSLYNEKLKQLKDGPWDVMLKRSLWCCIDLFSCILHLWKENISETSTNSLQKRIKYCKIYLSKLAKGEIGSSDEKTLDYADFADDSEEIKDEDVDHQTSDLENNNNDKVEGLAPKDQTTSYEPVDEVPEFIDDADSVNEEEQTVDKNEDAITKDEQQVVKKEVDLTRPSAPSEPAAAEHKSYTKDELTKIMDRASKIEQIQKLAKYAISDLNYEDLPTAKDELTKALDLLNSI [A307D],disrupting interaction
2,MASNAARVVATAKDFDKVGLGIIGYYLQLYAVELILSEEDRSQEMTALATELLDTIEAFKKEIGGESEAEDSDKSLHVMNTLIHDQEKAKIYMLNFTMSLYNEKLKQLKDGPWDVMLKRSLWCCIDLFSCILHLWKENISETSTNSLQKRIKYCKIYLSKLAKGEIGSSDEKTLDYADFADDSEEIKDEDVDHQTSDLENNNNDKVEGLAPKDQTTSYEPVDEVPEFIDDADSVNEEEQTVDKNEDAITKDEQQVVKKEVDLTRPSAPSEPAAAEHKSYTKDELTKIMDRASKIEQIQKLAKYAISALNYEDLPRAKDELTKALDLLNSI [T315R],decreasing interaction
3,MASNAARVVATAKDFDKVGLGIIGYYLQLYAVELILSEEDRSQEMTALATELLDTIEAFKKEIGGESEAEDSDKSLHVMNTLIHDQEKAKIYMLNFTMSLYNEKLKQLKDGPWDVMLKRSLWCCIDLFSCILHLWKENISETSTNSLQKRIKYCKIYLSKLAKGEIGSSDEKTLDYADFADDSEEIKDEDVDHQTSDLENNNNDKVEGLAPKDQTTSYEPVDEVPEFIDDADSVNEEEQTVDKNEDAITKDEQQVVKKEVDLTRPSAPSEPAAAEHKSYTKDELTKIMDRASKIEQIQKLAKAAISALNYEDLPTAKDELTKALDLLNSI [Y303A],disrupting interaction
4,MASNAARVVATAKDFDKVGLGIIGYYLQLYAVELILSEEDRSQEMTALATELLDTIEAFKKEIGGESEAEDSDKSLHVMNTLIHDQEKAKIYMLNFTMSLYNEKLKQLKDGPWDVMLKRSLWCCIDLFSCILHLWKENISETSTNSLQKRIKYCKIYLSKLAKGEIGSSDEKTLDYADFADDSEEIKDEDVDHQTSDLENNNNDKVEGLAPKDQTTSYEPVDEVPEFIDDADSVNEEEQTVDKNEDAITKDEQQVVKKEVDLTRPSAPSEPAAAEHKSYTKDELTKIMDRASKIEQIQKLAKYAISALNYEALPTAKDELTKALDLLNSI [D312A],decreasing interaction
5,MASNAARVVATAKDFDKVGLGIIGYYLQLYAVELILSEEDRSQEMTALATELLDTIEAFKKEIGGESEAEDSDKSLHVMNTLIHDQEKAKIYMLNFTMSLYNEKLKQLKDGPWDVMLKRSLWCCIDLFSCILHLWKENISETSTNSLQKRIKYCKIYLSKLAKGEIGSSDEKTLDYADFADDSEEIKDEDVDHQTSDLENNNNDKVEGLAPKDQTTSYEPVDEVPEFIDDADSVNEEEQTVDKNEDAITKDEQQVVKKEVDLTRPSAPSEPAAAEHKSYTKDELTKIMDRASKIEQIQKLAKYAIRALNYEDLPTAKDELTKALDLLNSI [S306R],decreasing interaction

# Variants of: B2
# Settings: with vta1_yeast VTA1, Q06263
row,Variant,effect of a mutation on the interaction
1,MSTGDFLTKGIELVQKAIDLDTATQYEEAYTAYYNGLDYLMLALKYEKNPKSKDLIRAKFTEYLNRAEQLKKHLESEEANAAKKSPSAGSGSNGGNKKISQEEGEDNGGEDNKKLRGALSSAILSEKPNVKWEDVAGLEGAKEALKEAVILPVKFPHLFKGNRKPTSGILLYGPPGTGKSYLAKAVATEANSTFFSVSSSDLVSKWMGESEKLVKQLFAMARENKPSIIFIDEVDALTGTRGEGESEASRRIKTELLVQMNGVGNDSQGVLVLGATNIPWQLDSAIRRRFERRIYIPLPDLAARTTMFEINVGDTPCVLTKEDYRTLGAMTEGYSGSDIAVVVKDALMQPIRKIQSATDFKDVSTEDDETRKLTPCSPGDDGAIEMSWTDIEADELKEPDLTIKDFLKAIKSTRPTVNEDDLLKQEQFTRDFGQEGN [H359D],decreasing interaction
